Test results: patent US20240390512A1, “METHODS OF TREATING CHEMOTHERAPY-RESISTANT CANCER WITH AN ANTIBODY-DRUG CONJUGATE” (DAIICHI SANKYO COMPANY, LIMITED, priority 2021, published 2024)
Numbering of substitutions follows the chain as printed.

B1: rG019: rat anti-human CDH6 monoclonal antibody produced by hybridoma rG019; variable regions SEQ ID NO: 10 and 15 (antibody, listed as Rattus norvegicus, V domains shown)
VL: DIQMTQSPSLLSASVGDRVTLNCKASQNIYKNLAWYQQKLGEGPKLLIYDANTLQTGIPSRFSGSGSGSDFTLTISSLQPEDVATYFCQQYYSGWAFGGVTNLELKRA
VH: QVQLQQSGAELVKPGSSVKISCKASGYTFTRNFMHWIKQQPGNGLEWIGWIYCGDGETEYNQKFNGKATLTADRSSSTAYMELSRLTSEDSAVYFCARGVYGGFAGGYFDFWGQGVMVTVSS
B2: rG055: rat anti-human CDH6 monoclonal antibody produced by hybridoma rG055; variable regions SEQ ID NO: 20 and 25 (antibody, listed as Rattus norvegicus, V domains shown)
VL: DVQMTHSPSYLAASPGESVSISCKTSKNISNYLVWYQQKPGEAYKLLIYSGSTLQSGTPSRFSGSGSGTDFTLTIRSLEPEDFGLYFCQQYYEKPFTFGSGTKLEIKRA
VH: EVQLQESGPGLVRPSQSLSLSCSVTDYSITSNYWGWIRRFPGNKMEWMGYITYSGYTSYNPSLQSRISITRDTSKNQFFLQLNSVTAEDTATYYCARSINHGGYSYVVDAWGPGASVTVSS
B3: rG056: rat anti-human CDH6 monoclonal antibody produced by hybridoma rG056; variable regions SEQ ID NO: 30 and 35 (antibody, listed as Rattus norvegicus, V domains shown)
VL: DVQMTQSPSSLAASPGESVSISCRATKSIGIYLAWYQQKPGKTFKLLIYSGSTLQSGTPSRFSGSGSGTDFTLTIRSLEPEDFGLYFCQQFYENPFTFGSGTKLEIRRA
VH: EVQLQESGPGLVKPSQSLSLTCSVTDYSITTYFWGWIRKFPGNKMEWMGYMSYRGGTSYNPSLKSRISITRDTSKNQFFLQLNSVTTEDTATYYCARCPNYGGHSLVFDYWGQGVMVTVSS
B4: rG061: rat anti-human CDH6 monoclonal antibody produced by hybridoma rG061; variable regions SEQ ID NO: 40 and 45 (antibody, listed as Rattus norvegicus, V domains shown)
VL: B2 VL with H6Q, T25A, S26T, N28S, V34A, L46V, F87S, F96L
VH: EVQLQESGPGLVKPSQSLSLTCSVTGYSITTYYWGWIRKFPGNKMEWMGYISYSGRTSYNPSLKSRMSITRDASKNQFFLQLNSVTTDDTATYYCARSPINHGGYWYFDFWGPGTMVTVSS

These molecules were tested on cynomolgus monkey CDH6 (assay: Hybridoma screening by Cell-ELISA and flow cytometry). Conditions: hybridoma culture supernatant; cells transfected with pcDNA3.1-cynoCDH6.
Chain of cynomolgus monkey CDH6 (as listed by the source): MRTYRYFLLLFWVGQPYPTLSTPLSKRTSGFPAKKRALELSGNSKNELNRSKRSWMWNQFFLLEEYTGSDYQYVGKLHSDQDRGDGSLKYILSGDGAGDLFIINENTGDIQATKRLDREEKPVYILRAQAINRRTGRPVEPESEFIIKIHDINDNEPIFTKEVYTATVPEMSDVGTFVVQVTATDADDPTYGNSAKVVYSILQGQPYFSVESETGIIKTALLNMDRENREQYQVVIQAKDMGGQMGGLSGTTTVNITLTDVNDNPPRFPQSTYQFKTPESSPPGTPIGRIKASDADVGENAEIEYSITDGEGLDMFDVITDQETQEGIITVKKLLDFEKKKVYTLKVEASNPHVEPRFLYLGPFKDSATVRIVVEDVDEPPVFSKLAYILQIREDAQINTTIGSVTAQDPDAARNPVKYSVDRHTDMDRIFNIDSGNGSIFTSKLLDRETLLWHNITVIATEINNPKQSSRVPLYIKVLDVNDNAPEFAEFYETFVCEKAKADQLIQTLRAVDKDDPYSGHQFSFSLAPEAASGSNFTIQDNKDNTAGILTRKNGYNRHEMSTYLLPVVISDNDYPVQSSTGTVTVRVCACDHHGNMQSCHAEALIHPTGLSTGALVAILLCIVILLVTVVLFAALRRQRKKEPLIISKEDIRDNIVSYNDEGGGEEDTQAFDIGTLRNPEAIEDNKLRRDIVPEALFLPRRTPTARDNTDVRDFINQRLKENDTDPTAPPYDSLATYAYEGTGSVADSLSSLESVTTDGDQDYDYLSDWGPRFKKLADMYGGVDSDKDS
Type: binding
Description: 293α cells (a stable expression cell line derived from HEK293 cells expressing integrin αv and integrin β3) were prepared at 5×10^5 cells/mL in DMEM medium supplemented with 10% FBS. In accordance with transduction procedures for using Lipofectamine 2000 (Thermo Fisher Scientific Inc.), DNA of pcDNA3.1-hCDH6 or pcDNA3.1-cynoCDH6, or pcDNA3.1 as a negative control was introduced into the 293α cells, and the cells were dispensed in an amount of 100 μL/well onto a 96-well plate (Corning Inc.). Thereafter, the cells were cultured under conditions of 37° C. and 5% CO2 in DMEM medium supplemented with 10% FBS for 24 to 27 hours. The obtained transfected cells were used for Cell-ELISA in an adhesive state.
The culture supernatant of the 293α cells transfected with the expression vector prepared in Reference Example 1)-4-1 was removed, and the culture supernatant from each hybridoma was then added to the 293α cells transfected with pcDNA3.1-hCDH6 or pcDNA3.1-cynoCDH6, or pcDNA3.1. The cells were left standing at 4° C. for 1 hour. The cells in the wells were washed once with PBS (+) supplemented with 5% FBS, and thereafter, Anti-Rat IgG-Peroxidase antibody produced in rabbit (Sigma-Aldrich Co. LLC) that had been 500-fold diluted with PBS (+) supplemented with 5% FBS was added to the wells. The cells were left standing at 4° C. for 1 hour. The cells in the wells were washed three times with PBS (+) supplemented with 5% FBS, and thereafter, OPD coloring solution (which had been prepared by dissolving o-phenylenediamine dihydrochloride (Wako Pure Chemical Industries, Ltd.) and H2O2 in an OPD solution (0.05 M trisodium citrate, 0.1 M disodium hydrogen phosphate 12-water; pH 4.5), so that the substances became 0.4 mg/ml and 0.6% (v/v), respectively, was added in an amount of 100 μL/well to the wells. A coloring reaction was carried out with occasional stirring. Thereafter, 1 M HCl was added to the plate (100 μL/well) to terminate the coloring reaction, followed by measurement of the absorbance at 490 nm using a plate reader (ENVISION: PerkinElmer, Inc.).
293T cells were seeded in a 225-cm^2 flask (Sumitomo Bakelite Co., Ltd.) at 5×10^4 cells/cm^2, and the cells were then cultured overnight under conditions of 37° C. and 5% CO2 in DMEM medium supplemented with 10% FBS. pcDNA3.1-cynoCDH6 or pcDNA3.1 as a negative control was introduced into the 293T cells using Lipofectamine 2000, and the cells were further cultured overnight under conditions of 37° C. and 5% CO2. […]
The binding specificity to cynomolgus monkey CDH6 of an antibody produced from the human CDH6- and cynomolgus monkey CDH6-binding antibody-producing hybridomas that had been selected by Cell-ELISA in Reference Example 1)-4 was further confirmed by flow cytometry. […] The data was analyzed using FlowJo (Tree Star, Inc.). […]
With B1 the “binding to monkey CDH6” value was “bind specifically and strongly”. In the case of B2, the “binding to monkey CDH6” value is reported as “bind specifically and strongly”. B3 was tested, and the “binding to monkey CDH6” value was “bind specifically and strongly”. For B4, the “binding to monkey CDH6” value was “bind specifically and strongly”.
